The record followed here is PMC11782487, “Cryo-EM structures reveal the H^+/citrate symport mechanism of Drosophila INDY” (Life Science Alliance, 2025).

By stoichiometry N is commonly meant the number of molecules, sites or subunits per partner or assembly.

The series deals with the molecule itself. Description: cryo-EM structure; purified INDY in MSP1 nanodiscs (E. coli polar lipids); apo at pH 6 and pH 8, with 5 mM citrate, or with 150 uM DIDS; homodimer in all seven structures.

B1: Drosophila I'm Not Dead Yet (INDY) (natural protein)
chain: not shown
notes: I'm Not Dead Yet (INDY), Drosophila melanogaster, full-length gene, GenBank AF509505.1; 590 amino acids; Eluted from the anti-GFP resin by overnight thrombin cleavage; residues of the thrombin site may be left at the C-terminus; Regions of poor density were modelled as polyalanine in the deposited structures; also called WT INDY; apo INDY; not shown: eGFP, C-terminal, cleaved; His10, C-terminal, …
B1: the “stoichiometry N” value was 2.
